# Experimental data reported in article PMC3760615 (The Journal of Cell Biology, 2013).
# T1: recombinant His-tagged drebrin ADFH-CC construct (human, UniProt Q16643 1-256)
# T1 sequence: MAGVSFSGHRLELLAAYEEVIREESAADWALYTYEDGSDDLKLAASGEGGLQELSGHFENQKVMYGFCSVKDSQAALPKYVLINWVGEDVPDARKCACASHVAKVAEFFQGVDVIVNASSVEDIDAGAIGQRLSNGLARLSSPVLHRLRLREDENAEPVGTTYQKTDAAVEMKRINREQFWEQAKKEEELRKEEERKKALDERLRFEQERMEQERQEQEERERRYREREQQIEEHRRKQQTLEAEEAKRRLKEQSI
# B1: recombinant His-tagged drebrin BB (blue box) domain (domain or fragment)
# chain: VLAAPVEPATADATEIHDAADTIETDTATADTTVANNVPPAATSLIDLWPGNGEGASTLQGEPRAPTPPSGTEVTLAEVPLLDEVAPEPLLPAGEGCATLLNFDELPEPPATFCDPEEVEGESLAAPQTPTLPSALEELEQEQEPEPHLLTNGETTQKEGTQASEGYFSQSQEEEFAQSEELCAKAPPPVFYNKPPEIDITCWDADPVPEEEEGFEGGD
# Molecular target: T1, recombinant His-tagged drebrin ADFH-CC …
# Assay: co-sedimentation
binder,measurement,value
B1,binding result,binds
